According to patent US10704030B2, “P450-BM3 variants with improved activity” (Codexis, Inc., priority 2015, dated 2020):

Key:
Format in all cases: biochemical
[1] = Validation of generalist properties: oxidation of gefitinib by lyophilized P450-BM3 variant, UPLC-MS; settings: [Gefitinib] = 1 mM; for TON: TON = [substrate]*% conversion/[P450]
Method in brief: (§1)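 Lyophilized lysate of E. coli-expressed P450-BM3 variant (stock standardized to 12 μM heme) was incubated 24 h at 30 °C with 1 or 2 mM substrate, 1.0 mM NADP+, 25 mM glucose, 0.5 mg/mL glucose dehydrogenase and 5% DMSO in 100 mM potassium phosphate. Acetonitrile-quenched samples were analyzed by UPLC-MS (positive ESI).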

[2] = Validation of generalist properties: oxidation of loratadine by lyophilized P450-BM3 variant, UPLC-MS; settings: [Loratadine] = 1 mM; for TON: TON = [substrate]*% conversion/[P450]
Method in brief: as §1

[3] = Validation of generalist properties over the four substrates screened
Method: For the production of lyophilized protein powders, LB agar plates supplemented with chloramphenicol (30 μg/mL) were streaked with E. coli containing a desired B. megaterium P450-BM3 variant in an IPTG-inducible vector. The plates were grown at 37° C. for 16 hrs before single clones were selected to inoculate a 15 mL Falcon™ tube (Fisher) containing TB media (3 mL) supplemented with chloramphenicol (30 μg/mL). The tube was shaken at 200 rpm, 30° C., and 85% humidity for 20-24 h to grow the cultures to saturation. Then, 2.5 mL of the overnight culture was used to inoculate sterile 1 L flasks containing TB medium (250 mL) supplemented with chloramphenicol (30 μg/mL), trace element solution (as described above), and 0.05 g/L ammonium iron (III) citrate. After being shaken at 250 rpm, 30° C., and 85% humidity to an OD600 of 0.8-1.2, P450 expression was induced by addition of IPTG (500 uM) and the heme precursor 5-aminolevulinic acid (5-ALA) to a final concentration of 500 uM. The cultures were grown for additional 20-24 hours and centrifuged in pre-weighed 250 mL centrifuge bottles for 20 minutes at 4000 rpm, 4° C. The supernatants were discarded, and the centrifuge bottles containing cell pellets were weighed. The pellets were resuspended in 50 mM potassium phosphate buffer with 2 mM DTT, pH 8.0 (5 mL of buffer per gram of cell pellet). The cells were lysed using a microfluidizer homogenizer, and the suspensions of cells and lysate were collected in sterile 50 mL centrifuge tubes. The samples were centrifuged for 30 minutes at 10,000 rpm, 4° C. The clarified lysate was collected into a plastic petri plate and frozen at −80° C. prior to lyophilization. The enzyme-containing lysates were lyophilized using standard methods known in the art.
Enzyme stocks (˜12 μM) were prepared by dissolving ˜20 mg of each enzyme in 100 mM potassium phosphate buffer, pH 8.0 (1 mL). The concentration of each enzyme stock solution was determined by the UV-visible absorption spectroscopy (after centrifugation to remove particulates) and diluted to standardize at 12 μM heme protein. Substrate solutions were prepared by dissolving each substrate in DMSO to reach a final concentration of 20 mM or 40 mM. Reaction mix (235 μL) followed by enzyme solution (50 μL) was added to the plates. The substrate stock solution was added to the enzyme solutions (15 μL at the two different concentrations). Each reaction contained 100 mM potassium phosphate, 1.0 mM NADP+, 25 mM glucose, 0.5 mg/mL glucose dehydrogenase, 5% DMSO and substrate at 1 or 2 mM. Loratadine, imatinib, and gefitinib (See, FIG. 1) were selected as substrates in addition to diclofenac to validate improved BM3 variants. The reactions were shaken at 450 rpm at 30° C. over 24 hours. All reactions were diluted with acetonitrile to a final concentration of 0.5 mM substrate. The plates were then centrifuged at 3,000 g for 1 hour at 20° C. The supernatant was diluted 1:1 with acetonitrile, filtered using a 0.4 micron filter, and analyzed by UPLC-MS.
For UPLC-MS analysis, the quenched and filtered reactions were transferred to 96-well HTP plates for analysis by UPLC on a Waters Acquity H-class system equipped with an autosampler. 1 uL of quenched sample was injected onto an Acquity UPLC HSS T3 column, 100 Å, (1.8 um; 2.1×100 mm). […] Column eluent was monitored by PDA (200-600 nm) prior to MS analysis in positive ESI mode (desolvation temperature 350° C., 3.25 kV spray voltage, cone voltage 25V). […]

[4] = Validation of generalist properties: oxidation of imatinib by lyophilized P450-BM3 variant, UPLC-MS; settings: [Imatinib] = 1 mM; for TON: TON = [substrate]*% conversion/[P450]
Method in brief: as §1

[5] = Validation of generalist properties: oxidation of diclofenac by lyophilized P450-BM3 variant, UPLC-MS; settings: [Diclofenac] = 1 mM; for TON: TON = [substrate]*% conversion/[P450]
Method in brief: as §1

[6] = fold improvement over parent MCYP-1.2-A12

| Molecule | % Conv. [1] | TON [1] | FIOPC (A12) [1, 6] | % Conv. [2] | TON [2] | FIOPC (A12) [2, 6] | performance (% conversion at 1 mM substrate loading) over the substrates screened, in words [3] | % Conv. [4] | TON [4] | FIOPC (A12) [4, 6] | % Conv. [5] | TON [5] | FIOPC (A12) [5, 6] |
| --- | --- | --- | --- | --- | --- | --- | --- | --- | --- | --- | --- | --- | --- |
| Variant 16: P450-BM3 variant of SEQ ID NO: 6: K32R; C48S; Y52F; G115R; L216Y; D232H; E349K; M491A; T577A; E619D; A627S; D722S (protein, P450_BM3, C48S; Y52F; G115R; L216Y; D232H; E349K; M491A; T577A; E619D; A627S; D722S) MTIKEMPQPKTFGELKNLPLLNTDKPVQALMRIADELGEIFKFEAPGSVTRFLSSQRLIKEACDESRFDKNLSQALKFARDFLGDGLFTSWTHEINWKKAHNILLPSFSQQAMKRYHAMMVDIAVQLVQKWERLNADEHIEVSEDMTRLTLDTIGLCGFNYRFNSFYRDQPHPFIISMVRALDEVMNKLQRANPDDPAYDENKRQCQEDIKVMNDYVDKIIADRKARGEQSHDLLTQMLNGKDPETGEPLDDGNISYQIITFLIAGHETTSGLLSFALYFLVKNPHVLQKVAEEAARVLVDPVPSYKQVKQLKYVGMVLNEALRLWPTAPAFSLYAKEDTVLGGEYPLKKGDEVMVLIPQLHRDKTIWGDDVEEFRPERFENPSAIPQHAFKPFGNGQRACIGQQFALHEATLVLGMMLKHFDFEDHTNYELDIKETLTLKPEGFVVKAKSKKIPLGGIPSPSTEQSAKKVRKKAENAHNTPLLVLYGSNAGTAEGTARDLADIAMSKGFAPQVATLDSHAGNLPREGAVLIVTASYNGHPPDNAKQFVDWLDQASADEVKGVRYSVFGCGDKNWAATYQKVPAFIDETLAAKGAENIADRGEADASDDFEGTYEEWRDHMWSDVASYFNLDIENSEDNKSTLSLQFVDSAADMPLAKMHGAFSTNVVASKELQQPGSARSTRHLEIELPKEASYQEGDHLGVIPRNYEGIVNRVTARFGLSASQQIRLEAEEEKLAHLPLAKTVSVEELLQYVELQDPVTRTQLRAMAAKTVCPPHKVELEALLEKQAYKEQVLAKRLTMLELLEKYPACEMKFSEFIALLPSIRPRYYSISSSPRVDEKQASITVSVVSGEAWSGYGEYKGIASNYLAELQEGDTITCFISTPQSEFTLPKDPETPLIMVGPGTGVAPFRGFVQARKQLKEQGQSLGEAHLYFGCRSPHEDYLYQEELENAQSEGIITLHTAFSRMPNQPKTYVQHVMEQDGKKLIELLDQGAHFYICGDGSQMAPAVEATLMKSYADVHQVSEADARLWLQQLEEKGRYAKDVWAG | ++++ (15.01-20.00) | ‡‡‡‡ (10000-50000) | **** (10.01-15.00) | + (0-5.00) | ‡ (0-1000) | * (0.0-3.0) | improved and significant activity for three out of four substrates screened | ++++ (15.01-20.00) | ‡‡‡‡ (10000-50000) | **** (10.01-15.00) | ++++ (15.01-20.00) | ‡‡‡‡ (10000-50000) | * (0.0-3.0) |
| SEQ ID NO: 6: P450-BM3 parental backbone from the commercially available MCYP panel (MCYP-0343; Codexis) (protein, P450_BM3) MTIKEMPQPKTFGELKNLPLLNTDKPVQALMKIADELGEIFKFEAPGCVTRYLSSQRLIKEACDESRFDKNLSQALKFARDFLGDGLFTSWTHEINWKKAHNILLPSFSQQAMKGYHAMMVDIAVQLVQKWERLNADEHIEVSEDMTRLTLDTIGLCGFNYRFNSFYRDQPHPFIISMVRALDEVMNKLQRANPDDPAYDENKRQCQEDIKVMNDLVDKIIADRKARGEQSDDLLTQMLNGKDPETGEPLDDGNISYQIITFLIAGHETTSGLLSFALYFLVKNPHVLQKVAEEAARVLVDPVPSYKQVKQLKYVGMVLNEALRLWPTAPAFSLYAKEDTVLGGEYPLEKGDEVMVLIPQLHRDKTIWGDDVEEFRPERFENPSAIPQHAFKPFGNGQRACIGQQFALHEATLVLGMMLKHFDFEDHTNYELDIKETLTLKPEGFVVKAKSKKIPLGGIPSPSTEQSAKKVRKKAENAHNTPLLVLYGSNMGTAEGTARDLADIAMSKGFAPQVATLDSHAGNLPREGAVLIVTASYNGHPPDNAKQFVDWLDQASADEVKGVRYSVFGCGDKNWATTYQKVPAFIDETLAAKGAENIADRGEADASDDFEGTYEEWREHMWSDVAAYFNLDIENSEDNKSTLSLQFVDSAADMPLAKMHGAFSTNVVASKELQQPGSARSTRHLEIELPKEASYQEGDHLGVIPRNYEGIVNRVTARFGLDASQQIRLEAEEEKLAHLPLAKTVSVEELLQYVELQDPVTRTQLRAMAAKTVCPPHKVELEALLEKQAYKEQVLAKRLTMLELLEKYPACEMKFSEFIALLPSIRPRYYSISSSPRVDEKQASITVSVVSGEAWSGYGEYKGIASNYLAELQEGDTITCFISTPQSEFTLPKDPETPLIMVGPGTGVAPFRGFVQARKQLKEQGQSLGEAHLYFGCRSPHEDYLYQEELENAQSEGIITLHTAFSRMPNQPKTYVQHVMEQDGKKLIELLDQGAHFYICGDGSQMAPAVEATLMKSYADVHQVSEADARLWLQQLEEKGRYAKDVWAG | ++ (5.01-10.00) | ‡‡ (1001-5000) |  | + (0-5.00) | ‡ (0-1000) |  | low activity for each substrate screened | + (0-5.00) | ‡‡ (1001-5000) |  | ++ (5.01-10.00) | ‡‡ (1001-5000) |  |
